The subject of data set [1] is ABF1 (Arabidopsis thaliana). The experiment in a line: cell_activity. To be noted: yeast lacZ; no activity without ABRE.
In data set [2] the test system is ABF2 (Arabidopsis thaliana). The experiment in a line: cell_activity. To be noted: yeast lacZ.

With Em1a trimer reporter, in data set [1], the activity (fold over control) was found to be 6. Moreover, the activity (fold over background) in data set [2] worked out at 2.

Values taken from patent publication US6194559.
